Measurements from the DeepSol protein solubility set.

Assay: soluble on expression in E. coli; label from the status in PepcDB or PDB records

MGFQNLWFSHPRKFGPGSRSCRVCAGHHGLIRKYGLDLCRRCFREQARDIGFKKLD
soluble on expression in E. coli: not soluble

GPGSMIARAIANRAACTFLNISSSSLMSKWMGDGEKLVRCLFAVATVKQPSVIFIDEIDSLLSMRGEGETDSVRRVKTEFLVQLDGVATDRGDRVLLIGATNRPDELDEAARRRMEKRLYIPLPDEAARRELIQRLLKSLGPSEAGEDGAIGNAGEAASTATATTTTQVTHTLTDADLDTLVRSTDGYSGADLKQLCREAAMGPLREMSIMQLSAVAAADLRPVQRKDFRQALKRLKPSVGPAEVQRYVEWNKLFGSFNEHDDDDDDELEHHEGHGAC
soluble on expression in E. coli: soluble

FLKGGFDPKMNSKEALQILNLTENTLTKKKLKEVHRKIMLANHPDKGGSPFLATKINEAKDFLEKRGISK
soluble on expression in E. coli: not soluble

MSLRQVIPIPSPPAKYLLPEVTVLDYGKKCVVIDLDETLVHSSFKPISNADFIVPVEIDGTIHQVYVLKRPHVDEFLQRMGQLFECVLFTASLAKYADPVADLLDRWGVFRARLFRESCVFHRGNYVKDLSRLGRELSKVIIVDNSPASYIFHPENAVPVQSWFDDMTDTELLDLIPFFEGLSREDDEGHHHHHH
soluble on expression in E. coli: soluble

AYMYRSAFSVGLETRVTVPNVPIRFTKIFYNQQNHYDGSTGKFYCNIPGLYYFSYHITVYMKDVKVSLFKKDKAVLFTYDQYQEKNVDQASGSVLLHLEVGDQVWLQVYGDGDHNGLYADNVNDSTFTGFLLYHDTN
soluble on expression in E. coli: soluble

MGSDKIHHHHHHMEIKQLKEGLEGKVDFSLEYLREKPRQRAHMVASLLDDFFQPLSQHVLLEERISIMIRRGYVSRNLQDGSLNQHLQNGYERVMSGSLQSYKFRNVLTTATCLSLIGCSGSGKSSTLDRILATYPQVIYHEKHNFFQLSYLKIECPNNGSQQSLCLNFFREVDKRLGTKYESDYGGKRHGVPTLLALMSQVANQRAIGVLVIDEIQRLKIRKAVGREQMLEFFVELVNTVGIPVILVGTPKARPLFEIELQSARRTTGIGSLYWQPMPQYPDNPAERSEWEAFTNKLWRYQWLTRRDEVLTDEIRDCWYELSQGVLDIVVKLFVLAQLRAIASKLERITVKVLRSVYETELKPVHPMLHAIRRGNPNLIAKYSDLRIEDIDKRLLTLHQKIQALPEEPELPFSNNEQAMRLYNLLVQMDCRSDLLIPLVEKIFIERPKLTLRNMMPIVLEWYENGKEQPTNAPKPAKAALVKRTDWNTLESDDLRFIYSQVGKSESIYEALKDNGLVLDLKKVN
soluble on expression in E. coli: not soluble

MGSDKIHHHHHHMKYLKQYMIIGAVTMITSCSDFLDTAPLDALSPATTWKTEDDAQKFAIGCYGGNNYDTSSWEDGGNILYLDCGSDFGYNNFEWENYKTIGNGTMTPSGAVASFYDFSVIRRCNTFLEKVKEIPFSNEQTKNDLIGQVRTIRAYRYFVMNWWYGGVPVIDNYNSADEAKVPRKSEEEVKNYVNTELDTAIGELNASPSERGRIAKGAAMAIRMRSALYYGDYVKAKEMAEAIMNLKQYDLEPDYSNLFKVAGQDSKEIILAVQYVNSTLELGTIGQMYNNGDGGWSSIVPTQNLVDTYEMADGLTKEESGSYDPNHPFAGRDPRMAMTIIYPGMDWNGTVVNTLDKTINGKDNANYPPSANNASKTALTWRKYLDEQYANGIWNTNACPIVIRYAEVLLTYAEAVNELSGPSADVYDKLDLIRGRVGMPKVDREKYASKETLRRLIRRERGVELAGEGVRRADILRWKDDNGKMVAETVLNGVLERVVGTVNYAETDPTKRAEIDTNAPATDKKIEDRVFKVHNRYNPIPQGAIDNNPNLEQNPGY
soluble on expression in E. coli: not soluble

IHNSRWIMTPEVKEDCKMRLFCLPFAGGGALAYRSWCRYMPPEIELCAVQLPGRENRIKDEKFYDINLLIDELVLQILPYLDKPFALYGHSMGGLISFELARRIRKVKGLTPKILFFSGSKAPQLYDHTKDISHLPDELFLKAIKSFNGMPDMFWQDRELIEFKLPTLRADFSVLEGYNYYNEEPLECPISALCGENDKIISKKDMEALALQTKNQFKLRMFDGDHFFINTCRSKVLKSIIEDLN
soluble on expression in E. coli: not soluble

MSTGVKANDVKTKTKGADLVVDCLIKQGVTHVFGIPGAKIDSVFDVLQERGPELIVCRHEQNAAFMAAAIGRLTGKPGVCLVTSGPGTSNLATGLVTANAESDPVVALAGAVPRTDRLKRTHQSMDNAALFEPITKYSVEVEHPDNVPEALSNAFRSATSTNPGATLVSLPQDVMTAETTVESIGALSKPQLGIAPTHDITYVVEKIKAAKLPVILLGMRASTNEVTKAVRALIADTELPVVETYQAAGAISRELEDHFFGRVGLFRNQPGDILLEEADLVISIGYDPIEYDPKFWNKLGDRTIIHLDDHQADIDHDYQPERELIGDIALTVNSIAERLPKLVLSTKSEAVLERLRAKLSEQAEVPNRDSEGVTHPLQVIRTLRSLISDDTTVTCDIGSHSIWMARCFRSYEPRRLLFSNGMQTLGVALPWAIAATLVEPGKKVVSVSGDGGFLFSAMELETAVRLNSPIVHLVWRDGTYDMVAFQQMMKYGRTSATEFGDVDLVKYAESFGATGLRVNTPDELEGVLKSALAADGPVIIDIPIDYRDNIKLSEKLLPNQLN
soluble on expression in E. coli: not soluble

RIEDIETKNIQYEERVSVQADLGSQTLHVRGLIDSGNQLYDPLTKTPVMIIYIDKLEPIFGTAETMIIRNTDPLEAIEQLDDSFRFLDKMRLIPYRGVGQQNQFLLCVKPDHVTIMTKEEMISADKCLIGISTTKLSADGEFDAIIHPKMLSGKAVKHVS
soluble on expression in E. coli: soluble

MLCHTLISSFNNHIWRFLIMENKMNDNRVPRERVAILIDSGCDVTEELIRQYNMKLLRLHVIYPEKDYSDDLDISPQTVYERFPGEIPHTSTPSPQEVKDMADELKREGYTHVLAFAISSGLSGTYNTMCSVLNEEEELTSFVLDTRNISFGSGVLAVWAAQKLEEGMPYEELVRLLPGKVQDSKILYYMDTLTYLQKGGRIGLVTSIVGNILNLKPIISCNCEGVYYTVAKIRGSKQGMTKLLAEAKDFAGDGPVWFSLLNGNAAAASNEMLKRITEALPEGKHLLSKQIAASLAVHTGPGLLGIGILKNP
soluble on expression in E. coli: not soluble

MSLMYKVLLVDDEYMILQGLTMIIDWQALGFEVVQTARSGKEALTYLTQYPVDVMISDVTMPGMTGLDLIEAAKTYHPQLQTLILSGYQEFSYVQKAMELETKGYLLKPVDKAELQAKMKQFKDCLDAQQAESIRQEAYHDSLLTLWLTDELSEKEFQQLSQGLPAAALIGFTVLYLDCQEWQAAIDAYFEQEGQPFYLKKEEDKKVYLAVLLGKTDQAKAFTYDLQKRFSRNMHQLILGETVDDWENVYESYNQVLKSLFYNCEVSPIRAKDKSKIELPESRLQFFAFNKALMIGDEPTILSKLEAIFDEMKTLNFSPEDVKHVSFLLFSDIYRQFPILDKMTYLSMVKTIHDSQSIDRILRELKKVLDVTNQNNSPEKRYSDLVSETIDCIRKEYHQELTLKAIADRLHVNGVYLGQCFKNETERSFTQYLNHVRIQKAQQLLLYTNQSINEIAYETGYNTNHYFIKMFKKLNGLSPKEFRDRYKDNYQAEGHHHHHH
soluble on expression in E. coli: soluble

EMTDLQSTHKNFLFEIEEVGIKNLTYPVLIDQYQTAGLFSFSTSLNKNEKGINMSRILESVEKHYDNGIELEFNTLHQLLRTLQDKMNQNAAGVDVSGKWFFDRYSPVTNIKAVGHADVTYGLAIENHTVTRKELTIQAKVTTLCPCSKEISEYSAHNQRGIVTVKAYLDKNNDVIDDYKDKILDAMEANASSILYPILKRPDEKRVTERAYENPRFVEDLIRLIAADLVEFDWIEGFDIECRNEESIHQHDAFARLKYRK
soluble on expression in E. coli: not soluble

MLAAFQQQQTRKFSPITNTSASCLNMQPNPPKISIAPSVISVIGVHMEKHKLKIKTGQNIVLSASILPIQATNKELIWSNMNSDIITIYPKGDTVTITGKSAGKAVVIVTTAEGKFRDLCVIHVQPYMTNPK
soluble on expression in E. coli: not soluble

MGSDKIHHHHHHMVTIVPINEEERASIINGLKSSVPATKLITLKKIVDLTVLRPESLQYMEMTDKMAIQRIVSGIERIMEYDIDEVLKREASIALEKLKVTLGSKFVQNLFYCQNCNGVVDIGWENCANCGASLAEMEFAETKPCPNCNKHTSENWNNCAHCGFQLIKEEDKIQKCSGCKREVDPTWMVCPYCGTRLKVSKK
soluble on expression in E. coli: not soluble

PDAPRNLQLSLPREAEGVIVGHWAPPIHTHGLIREYIVEYSRSGSKMWASQRAASNFTEIKNLLVNTLYTVRVAAVTSRGIGNWSDSKSITTIKG
soluble on expression in E. coli: soluble
